Experimental data reported in paper PMC2770428 (2010).
“And” between values parts separate entries of the source, which are not always exact repeats. Equal entries are not always repeated.

T1: C4b (on zymosan, average) C4b (Homo sapiens, UniProt P0C0L5)
T1 chain 1: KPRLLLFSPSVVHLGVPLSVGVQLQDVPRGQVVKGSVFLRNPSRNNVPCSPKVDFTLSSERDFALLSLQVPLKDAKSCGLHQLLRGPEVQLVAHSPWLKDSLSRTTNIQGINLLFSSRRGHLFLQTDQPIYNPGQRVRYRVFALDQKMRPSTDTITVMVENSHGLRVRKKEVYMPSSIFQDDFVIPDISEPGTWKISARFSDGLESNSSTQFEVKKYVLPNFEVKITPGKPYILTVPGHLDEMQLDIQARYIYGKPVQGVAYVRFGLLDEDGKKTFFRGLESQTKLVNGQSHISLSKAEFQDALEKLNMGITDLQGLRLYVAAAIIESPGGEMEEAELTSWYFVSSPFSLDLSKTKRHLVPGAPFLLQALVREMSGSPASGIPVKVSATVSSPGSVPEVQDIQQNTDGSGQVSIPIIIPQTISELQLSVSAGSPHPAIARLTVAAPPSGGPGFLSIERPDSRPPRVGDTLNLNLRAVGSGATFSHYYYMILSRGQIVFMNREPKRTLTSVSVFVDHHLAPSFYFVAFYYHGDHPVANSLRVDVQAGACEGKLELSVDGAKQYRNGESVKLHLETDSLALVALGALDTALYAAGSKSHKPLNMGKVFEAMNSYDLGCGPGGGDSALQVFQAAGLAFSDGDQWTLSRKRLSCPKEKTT
T1 chain 2: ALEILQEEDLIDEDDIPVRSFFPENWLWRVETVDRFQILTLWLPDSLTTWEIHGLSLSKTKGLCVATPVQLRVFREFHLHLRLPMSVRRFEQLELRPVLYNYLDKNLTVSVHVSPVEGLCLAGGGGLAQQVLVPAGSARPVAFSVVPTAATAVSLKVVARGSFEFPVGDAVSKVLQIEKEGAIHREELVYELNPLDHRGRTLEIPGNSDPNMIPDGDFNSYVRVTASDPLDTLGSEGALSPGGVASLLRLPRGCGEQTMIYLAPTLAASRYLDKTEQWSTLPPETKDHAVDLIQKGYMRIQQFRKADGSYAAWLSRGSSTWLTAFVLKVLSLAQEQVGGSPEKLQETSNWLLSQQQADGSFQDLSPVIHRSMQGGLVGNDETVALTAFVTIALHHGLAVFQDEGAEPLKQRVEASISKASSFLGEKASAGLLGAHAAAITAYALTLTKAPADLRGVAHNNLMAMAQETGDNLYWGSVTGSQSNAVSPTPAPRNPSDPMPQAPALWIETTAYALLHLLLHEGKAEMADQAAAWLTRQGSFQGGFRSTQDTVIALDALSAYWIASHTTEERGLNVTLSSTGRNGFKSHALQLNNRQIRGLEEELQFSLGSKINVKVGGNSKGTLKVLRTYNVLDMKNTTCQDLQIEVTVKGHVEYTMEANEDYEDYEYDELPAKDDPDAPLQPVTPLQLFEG
T1 chain 3: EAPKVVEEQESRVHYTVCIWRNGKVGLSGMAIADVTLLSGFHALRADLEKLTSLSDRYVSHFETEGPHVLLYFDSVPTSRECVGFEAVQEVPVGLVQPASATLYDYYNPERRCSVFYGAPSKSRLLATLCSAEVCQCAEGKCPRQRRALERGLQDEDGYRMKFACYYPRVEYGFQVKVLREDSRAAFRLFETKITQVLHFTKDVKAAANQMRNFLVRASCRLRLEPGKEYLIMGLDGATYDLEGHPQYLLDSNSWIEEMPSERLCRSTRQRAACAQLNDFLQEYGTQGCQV

B1: C4b-binding protein (C4BP) (protein)
chain 1: NCGPPPTLSFAAPMDITLTETRFKTGTTLKYTCLPGYVRSHSTQTLTCNSDGEWVYNTFCIYKRCRHPGELRNGQVEIKTDLSFGSQIEFSCSEGFFLIGSTTSRCEVQDRGVGWSHPLPQCEIVKCKPPPDIRNGRHSGEENFYAYGFSVTYSCDPRFSLLGHASISCTVENETIGVWRPSPPTCEKITCRKPDVSHGEMVSGFGPIYNYKDTIVFKCQKGFVLRGSSVIHCDADSKWNPSPPACEPNSCINLPDIPHASWETYPRPTKEDVYVVGTVLRYRCHPGYKPTTDEPTTVICQKNLRWTPYQGCEALCCPEPKLNNGEITQHRKSRPANHCVYFYGDEISFSCHETSRFSAICQGDGTWSPRTPSCGDICNFPPKIAHGHYKQSSSYSFFKEEIIYECDKGYILVGQAKLSCSYSHWSAPAPQCKALCRKPELVNGRLSVDKDQYVEPENVTIQCDSGYGVVGPQSITCSGNRTWYPEVPKCEWETPEGCEQVLTGKRLMQCLPNPEDVKMALEVYKLSLEIEQLELQRDSARQSTLDKEL
chain 2: SDAEHCPELPPVDNSIFVAKEVEGQILGTYVCIKGYHLVGKKTLFCNASKEWDNTTTECRLGHCPDPVLVNGEFSSSGPVNVSDKITFMCNDHYILKGSNRSQCLEDHTWAPPFPICKSRDCDPPGNPVHGYFEGNNFTLGSTISYYCEDRYYLVGVQEQQCVDGEWSSALPVCKLIQEAPKPECEKALLAFQESKNLCEAMENFMQQLKESGMTMEELKYSLELKKAELKAKLL

What was measured:
[1] = target: C4b (surface-bound) (Homo sapiens) (UniProt P0C0L4); conditions: cited from earlier work
[2] = target: C4b (soluble) (Homo sapiens) (UniProt P0C0L4); conditions: cited from earlier work
[3] = target: T1, C4b (on zymosan, average) C4b; assay: 125I-C4BP equilibrium binding
[4] = target: C3bC4b complex (on zymosan, 54,000 C4b/Zym) C3b+C4b (Homo sapiens, UniProt P01024); assay: 125I-C4BP equilibrium binding
C3bC4b complex (on zymosan, 54,000 C4b/Zym) C3b+C4b, sequence (P01024 23-1663, one chain of several): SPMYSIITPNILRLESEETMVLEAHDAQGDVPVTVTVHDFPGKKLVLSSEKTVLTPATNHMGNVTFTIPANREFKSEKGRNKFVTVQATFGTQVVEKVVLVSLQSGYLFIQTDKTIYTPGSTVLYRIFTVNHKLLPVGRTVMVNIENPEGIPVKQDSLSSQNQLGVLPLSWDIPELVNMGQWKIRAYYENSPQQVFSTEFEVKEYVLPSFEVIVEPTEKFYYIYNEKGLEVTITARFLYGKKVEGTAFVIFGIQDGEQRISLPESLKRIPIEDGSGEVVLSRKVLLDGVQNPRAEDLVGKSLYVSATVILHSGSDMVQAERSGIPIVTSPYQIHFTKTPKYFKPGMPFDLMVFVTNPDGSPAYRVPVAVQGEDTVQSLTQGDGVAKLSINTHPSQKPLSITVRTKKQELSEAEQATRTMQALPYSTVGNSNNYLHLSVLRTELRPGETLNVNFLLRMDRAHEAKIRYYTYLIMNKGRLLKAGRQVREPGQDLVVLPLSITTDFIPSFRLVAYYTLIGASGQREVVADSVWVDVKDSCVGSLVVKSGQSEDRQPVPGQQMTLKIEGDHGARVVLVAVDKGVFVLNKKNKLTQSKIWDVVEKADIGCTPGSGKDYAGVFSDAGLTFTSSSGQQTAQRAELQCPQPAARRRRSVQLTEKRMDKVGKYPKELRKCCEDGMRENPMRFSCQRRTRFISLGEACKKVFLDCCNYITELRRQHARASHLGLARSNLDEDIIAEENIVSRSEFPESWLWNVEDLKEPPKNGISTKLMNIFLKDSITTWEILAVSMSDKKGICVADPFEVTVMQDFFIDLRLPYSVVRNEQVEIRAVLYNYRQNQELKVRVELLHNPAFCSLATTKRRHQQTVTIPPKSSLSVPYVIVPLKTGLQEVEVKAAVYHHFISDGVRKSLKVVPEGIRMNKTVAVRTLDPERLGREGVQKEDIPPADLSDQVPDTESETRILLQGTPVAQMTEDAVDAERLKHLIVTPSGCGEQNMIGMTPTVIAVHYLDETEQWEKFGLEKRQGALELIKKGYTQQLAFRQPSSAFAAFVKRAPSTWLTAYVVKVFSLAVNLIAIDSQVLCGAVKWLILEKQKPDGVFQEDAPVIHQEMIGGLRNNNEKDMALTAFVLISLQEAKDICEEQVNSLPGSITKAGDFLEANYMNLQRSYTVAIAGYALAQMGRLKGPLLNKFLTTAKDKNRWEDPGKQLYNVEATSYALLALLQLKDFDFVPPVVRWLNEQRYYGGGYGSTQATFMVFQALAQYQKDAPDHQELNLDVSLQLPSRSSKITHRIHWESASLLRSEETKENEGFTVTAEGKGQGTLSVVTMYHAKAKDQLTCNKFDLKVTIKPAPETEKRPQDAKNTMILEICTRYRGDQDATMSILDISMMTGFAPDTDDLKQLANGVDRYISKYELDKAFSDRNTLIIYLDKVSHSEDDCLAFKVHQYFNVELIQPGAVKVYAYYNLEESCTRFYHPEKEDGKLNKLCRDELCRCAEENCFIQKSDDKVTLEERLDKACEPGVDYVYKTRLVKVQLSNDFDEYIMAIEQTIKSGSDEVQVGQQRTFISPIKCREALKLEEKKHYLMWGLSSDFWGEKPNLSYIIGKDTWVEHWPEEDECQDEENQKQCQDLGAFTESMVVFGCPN

[5] = target: C3bC4b complex (on EMan, average) C3b+C4b (Homo sapiens, UniProt P01024); assay: 125I-C4BP equilibrium binding
C3bC4b complex (on EMan, average) C3b+C4b, sequence (P01024 23-1663, one chain of several): as above

[6] = target: C3bC4b complex (on zymosan, average) C3b+C4b (Homo sapiens, UniProt P01024); assay: 125I-C4BP equilibrium binding
C3bC4b complex (on zymosan, average) C3b+C4b, sequence (P01024 23-1663, one chain of several): as above

| Molecule | Kd [1] | Kd [2] | Kd [3] | Kd [4] | Kd [5] | Kd [6] |
| --- | --- | --- | --- | --- | --- | --- |
| C4BP (from UniProt P04003) | 5 nM and 2.2 nM | 80 nM | – | – | – | – |
| B1 | – | – | 0.95 nM | 0.62 nM | 2.1 nM | 0.9 nM |
